{
  "source": "paper PMC7948407",
  "about": "(2020)",
  "binders": {"B1": {"name": "Cysteine synthase (StCS) (protein)", "chain": "SKIYEDNSLTIGHTPLVRLNRIGNGRILAKVESRNPSFSVKCRIGANMIWDAEKRGVLKPGVELVEPTSGNTGIALAYVAAARGYKLTLTMPETMSIERRKLLKALGANLVLTEGAKGMKGAIQKAEEIVASDPQKYLLLQQFSNPANPEIHEKTTGPEIWEDTDGQVDVFISGVGTGGTLTGVTRYIKGTKGKTDLITVAVEPTDSPVIAQALAGEEIKPGPHKIQGIGAGFIPGNLDLKLIDKVVGITNEEAISTARRLMEEEGILAGISSGAAVAAALKLQEDESFTNKNIVVILPSSGERYLSTALFADLFTEKELQQ"}, "B2": {"name": "Cysteine synthase (HiCS) (protein)", "chain": "MAIYADNSYSIGNTPLVRLKHFGHNGNVVVKIEGRNPSYSVKCRIGANMVWQAEKDGTLTKGKEIVDATSGNTGIALAYVAAARGYKITLTMPETMSLERKRLLCGLGVNLVLTEGAKGMKGAIAKAEEIVASDPSRYVMLKQFENPANPQIHRETTGPEIWKDTDGKVDVVVAGVGTGGSITGISRAIKLDFGKQITSVAVEPVESPVISQTLAGEEVKPGPHKIQGIGAGFIPKNLDLSIIDRVETVDSDTALATARRLMAEEGILAGISSGAAVAAADRLAKLPEFADKLIVVILPSASERYLSTALFEGIEG"}},
  "key": {"[1]": {"molecular_target": "T1, SAT C-terminal C10 peptide C-terminal 10 residues (Salmonella typhimurium, UniProt P29847)", "T1 chain": "HHTFEYGDGI", "experiment": "PLP fluorescence titration"}, "[2]": {"molecular_target": "T2, SAT C-terminal C10 peptide C-terminal 10 residues (Haemophilus influenzae, UniProt P43886)", "T2 chain": "GIDDGMNLNI", "experiment": "PLP fluorescence titration"}},
  "data": [
    {"binder": "B1", "values": [
      {"measurement": "Kd", "setting": "[1]", "value": 290, "unit": "nM"}
    ]},
    {"binder": "B2", "values": [
      {"measurement": "Kd", "setting": "[2]", "value": 3400, "unit": "nM"}
    ]}
  ]
}
